Numbering of substitutions follows the chain as printed. Names and notes keep the numbering of the source.

In data set [1] the target is T1, PfTrpA (α-subunit of tryptophan synthase from Pyrococcus furiosus) (Pyrococcus furiosus, UniProt Q8U094 1-248).
T1 construct: Expressed in E. coli; Purified by Q HP HiTrap flow-through, ammonium sulfate precipitation and phenyl Sepharose chromatography; also called P. furiosus TrpA
T1 sequence (looked up): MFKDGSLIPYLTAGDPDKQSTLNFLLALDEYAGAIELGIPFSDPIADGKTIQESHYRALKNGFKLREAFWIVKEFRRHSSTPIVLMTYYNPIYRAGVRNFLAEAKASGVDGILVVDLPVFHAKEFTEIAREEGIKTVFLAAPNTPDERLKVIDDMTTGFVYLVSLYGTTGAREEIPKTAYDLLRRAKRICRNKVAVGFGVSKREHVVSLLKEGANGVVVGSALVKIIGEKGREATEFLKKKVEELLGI
Put plainly: inferred from inhibition of enzyme activity on adding PfTrpA.

Data set [2] deals with T2, TmTrpB (wild-type β-subunit of tryptophan synthase from Thermotoga maritima).
T2 chain: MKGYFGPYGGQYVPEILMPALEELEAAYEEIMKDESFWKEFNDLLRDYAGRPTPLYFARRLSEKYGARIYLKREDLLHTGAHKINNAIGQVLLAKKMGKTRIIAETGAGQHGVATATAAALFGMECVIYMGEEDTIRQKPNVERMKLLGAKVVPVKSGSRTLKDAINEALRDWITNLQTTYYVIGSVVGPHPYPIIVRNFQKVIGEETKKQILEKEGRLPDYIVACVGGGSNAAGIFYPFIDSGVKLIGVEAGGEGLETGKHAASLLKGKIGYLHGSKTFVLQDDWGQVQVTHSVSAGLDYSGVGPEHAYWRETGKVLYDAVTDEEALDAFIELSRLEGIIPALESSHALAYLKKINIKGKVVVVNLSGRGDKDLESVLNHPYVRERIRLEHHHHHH

The target of data set [3] is T3, PfTrpB^2G9 (PfTrpB T292S).
T3 chain: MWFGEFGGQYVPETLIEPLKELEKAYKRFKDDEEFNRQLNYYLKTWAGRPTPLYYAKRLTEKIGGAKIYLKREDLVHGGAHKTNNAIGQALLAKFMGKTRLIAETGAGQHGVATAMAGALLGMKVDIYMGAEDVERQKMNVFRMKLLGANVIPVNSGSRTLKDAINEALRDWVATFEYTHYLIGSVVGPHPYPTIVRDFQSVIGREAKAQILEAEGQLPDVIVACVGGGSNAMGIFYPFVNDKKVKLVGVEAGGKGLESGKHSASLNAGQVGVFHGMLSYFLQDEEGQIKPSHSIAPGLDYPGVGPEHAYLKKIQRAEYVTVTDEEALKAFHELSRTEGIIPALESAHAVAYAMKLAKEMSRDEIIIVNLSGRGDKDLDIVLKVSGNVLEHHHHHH

Data set [4] has as its target T4, PfTrpB (wild-type β-subunit of tryptophan synthase from Pyrococcus furiosus).
T4 chain: T3 chain with S292T

Data set [5] deals with T5, PfTrpB^4D11 (PfTrpB E17G, I68V, T292S, F274S, T321A).
T5 chain: T3 chain with E17G, I68V, F274S, T321A

For data set [6], the target named is T6, PfTrpB^0B2 (PfTrpB P12L, E17G, I68V, T292S, F274S, T321A).
T6 chain: T3 chain with P12L, E17G, I68V, F274S, T321A

B1: PfTrpB^0B2 (PfTrpB P12L, E17G, I68V, T292S, F274S, T321A) (enzyme)
chain: T3 chain with P12L, E17G, I68V, F274S, T321A
notes: not shown: C-terminal his-tag from pET22(b)+
With B1, the binding result in data set [1] is “binds”.

B2: TmTrpA (α-subunit of tryptophan synthase from Thermotoga maritima) (protein)
chain: MKGFIAYIPAGFPDLETTRKILIALNELGITGVEIGVPFSDPVADGPVIQLAHSVALRNGVTIKKILEMLSEISVDYDLYLMSYLNPIVNYPEGKEKLLDELKKLGVKGLIIPDLPLREVKNVDIAYPIVPFVAPNTKDEEIDLINSVQAPFVYYISRYGVTGEREDLPFADHIKRVKERIKLPLFVGFGISRHEQVKKVWEIADGVIVGSALVRIMEENPKDEIPRKVVEKVKELLGK
Take B2: the kcat (s^-1) of the TmTrpS complex in data set [2] came to 2.2 s⁻¹.

B3: PfTrpA (α-subunit of tryptophan synthase from Pyrococcus furiosus) (protein)
chain: T1 sequence (looked up)
Consider B3, for which the kcat change with TrpA was determined as 0.34 fold in data set [3], 3.2 fold in data set [4], 0.3 fold in data set [5] and 0.04 fold in data set [6]. Moreover, the “increase in catalytic efficiency” value in data set [4] was 12-fold increase in catalytic efficiency.
